In patent publication US20140308287A1 (SEA LANE BIOTECHNOLOGIES, published 2014):
Positions count from the first letter of the chain named. Each block holds one binder with its values, some of them ahead of it.

Target: T1, human ErbB3-Fc (R&D Systems) (human, UniProt P21860 20-643)
T1 construct: Bought protein; also called wild-type ErbB3-Fc fusion; immobilized ErbB3; not shown: Fc part of the bought fusion protein; not described
Test: ELISA on ErbB3-Fc, soluble monovalent Sab (Example 42)

EC50: 0.071 nM
B1: 2995-A01 (other)
VH: EVQLLESGGGLVQPGGSLRLSCAASGFTFSSYWMHWVRQAPGKGLEWVAAISSSGTYTYYADSVKGRFTISRDNSKNTLYLQMNSLRAEDTAVYYCAKDNFILLNSWFDYWGQGTLVTVSS
light: QPVLHQPPAMSSALGTTIRLTCTLRNDHDIGVYSVYWYQQRPGHPPRFLLRYFSQSDKSQGPQVPPRFSGSKDVARNRGYLSISELQPEDEAMYYCAMGARSSVTHVFGSGTQLTVLSQPKATPSVTLFPPSSEELQANKATLVCLMNDFYPGILTVTWKADGTPITQGVEMTTPSKQSNNKYAASSYLSLTPEQWRSRRSYSCQVMHEGSTVEKTVAPAECS

EC50: 0.045 nM
B2: 2995-A09 (other)
VH: B1 VH with A50G, S53Y, S54G
light: B1 light

EC50: 0.015 nM
B3: 2995-D03 (other)
VH: B1 VH with W33A, A50L, S53N, S54G, G55S, T56G, T58K
light: B1 light
notes: copies: 1 + 1

EC50: 0.046 nM
B4: 2995-B01 (other)
VH: B1 VH with S31D, W33A, A50L, S54G, T56R, T58K
light: B1 light

EC50: 0.018 nM
B5: 2995-A02 (other)
VH: B1 VH with H35N, A50L, S53N, S54G, T56G, Y57I, T58K
light: B1 light
notes: copies: 1 + 1

EC50: 0.022 nM
B6: 2995-A07 (other)
VH: B1 VH with A50G, S54G, T56A
light: B1 light

EC50: 0.015 nM
B7: 2995-C05 (other)
VH: B1 VH with S31D, S54G, G55S, T56S
surrogate light: B1 light
notes: copies: 1 + 1

EC50: 0.033 nM
B8: 2995-D07 (other)
VH: B1 VH with S31N, S53N, S54G, T56G, T58K
surrogate light: B1 light
notes: copies: 1 + 1

EC50: 0.02 nM
B9: 2995-A08 (other)
VH: B1 VH with A50G, S53N, S54G, T56S, Y57I, T58I
light: B1 light

EC50: 0.022 nM
B10: 2995-G10 (other)
VH: B1 VH with S31D, H35N, A50N, S53N, S54G, T58I
light: B1 light

EC50: 0.038 nM
B11: 2995-D01 (other)
VH: B1 VH with H35S, A50L, S53N, S54G, T56S, Y57I, T58K
light: B1 light

EC50: 0.016 nM
B12: 2995-B02 (other)
VH: B1 VH with S31D, A50V, S54N, T56R
light: B1 light
notes: copies: 1 + 1

EC50: 0.052 nM
B13: 2995-D08 (other)
VH: B1 VH with S31D, S53W, S54G, T56S
light: B1 light

EC50: 0.027 nM
B14: 2995-C03 (other)
VH: B1 VH with A50G, S53G, S54G, T56R
surrogate light: B1 light
notes: copies: 1 + 1

EC50: 0.04 nM
B15: 2995-E12 (other)
VH: B1 VH with S31N, A50L, S54G, G55S, T58I, Y59S
light: B1 light

EC50: 0.056 nM
B16: 2995-C07 (other)
VH: B1 VH with S31N, A50L, S54G, G55S, T58I, Y59S, F108L
light: B1 light

EC50: 0.059 nM
B17: 2995-F08 (other)
VH: B1 VH with A49S, A50G, S53N, S54N, T56R, T58K
light: B1 light

EC50: 0.029 nM
B18: 2995-G11 (other)
VH: B1 VH with A49S, S54G, T56G, T58I
surrogate light: B1 light
notes: copies: 1 + 1

EC50: 0.063 nM
B19: 2995-H11 (other)
VH: B1 VH with S31D, A49S, T56G, T58K
light: B1 light

EC50: 0.039 nM
B20: 2995-E08 (other)
VH: B1 VH with A50G, S54G, T56S, T58K
light: B1 light

EC50: 0.01 nM
B21: 2995-B06 (other)
VH: B1 VH with S31N, W33G, A50L, S54G, T56A
light: B1 light

EC50: 0.02 nM
B22: 2995-C10 (other)
VH: B1 VH with A50G, S53G, S54G, T56A
light: B1 light
notes: copies: 1 + 1

EC50: 0.02 nM
B23: 2995-H09 (other)
VH: B1 VH with S31N, A50S, S53N, S54G, T56R, T58I
light: B1 light

EC50: 0.028 nM
B24: 2995-C02 (other)
VH: B1 VH with S31N, H35N, A50N, S54G, T56S
surrogate light: B1 light
notes: copies: 1 + 1

EC50: 0.025 nM
B25: 2995-H07 (other)
VH: B1 VH with S31D, H35N, A50L, S53N, S54N, T56S
light: B1 light

EC50: 0.01 nM
B26: 2995-A12 (other)
VH: B1 VH with S31D, H35N, A50N, S53G, S54G, T56G, T58I
surrogate light: B1 light

EC50: 0.022 nM
B27: 2995-A05 (other)
VH: B1 VH with S31N, S53N, S54G, G55S, T56S
light: B1 light

EC50: 0.021 nM
B28: 2995-B04 (other)
VH: B1 VH with S31N, A50L, S53N, S54N
light: B1 light

EC50: 0.032 nM
B29: 2995-A06 (other)
VH: B1 VH with A50G, S53D, S54G, T56A
surrogate light: B1 light
notes: copies: 1 + 1

EC50: 0.026 nM
B30: 2995-H03 (other)
VH: B1 VH with S31D, A50V, S53G, S54G, T56A, T58K
light: B1 light

EC50: 0.027 nM
B31: 2995-D11 (other)
VH: B1 VH with A50V, S53N, S54N, T56R, T58K
surrogate light: B1 light
notes: copies: 1 + 1

EC50: 0.032 nM
B32: 2995-B10 (other)
VH: B1 VH with S53A, S54G, G55S, T56G, T58I
surrogate light: B1 light
notes: copies: 1 + 1
